± gives the standard deviation of the averaged measurements.
B1: library; a variant is named by its letters at N, in order (parent)
chain: GCUGUCACCGAGAAACUGUGAAGUAUAUCUUAAACCUGGGCACUUAAAAGAUAUAUGGAGUUAGUAGUGCAACCUGCUCGGUCUGAUGAGUCCNNNNNNGGACGAAACAGC

Legend:
cyclic di-GMP [1] = variants of: B1; test: FACS-Seq fitted mean relative fluorescence mCherry/BFP without ligand (log10 relative fluorescence); HEK293T; ligand: cyclic di-GMP (c-di-GMP-II aptamer); higher = higher reporter protein expression; conditions: ligand present: no
Method in brief: (§1)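 Fluorescence figures are normalized fitted normal means of sequenced bin counts. Enriched, lentivirally transduced HEK293T libraries with a ribozyme-switch mCherry reporter and EF1α-BFP were held 48 h with or without ligand, then sorted into 6 mCherry/BFP bins. PCR-amplified, barcoded genomic DNA from each bin was sequenced on MiSeq. Means of log10(mCherry/BFP) were scaled to five spiked-in control ribozymes.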

cyclic di-GMP [2] = variants of: B1; test: normalized RNA/DNA level without ligand (relative to sTRSVctl = 100) (log10 (% of sTRSVctl)); HEK293T; ligand: cyclic di-GMP (c-di-GMP-II aptamer); higher = less ribozyme self-cleavage, higher mRNA level; conditions: reporter: mCherry (pCS4076), ligand present: no
Method in brief: (§2)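 For each 6-well well, 4 µg of library plasmid encoding mCherry-linked ribozyme switches, or eGFP-linked ones in some ligand experiments, was transfected into HEK293T. Any ligand was added 1 h before transfection, and RNA was extracted with EDTA 72 h after it, then reverse-transcribed, amplified, barcoded and sequenced. RNA level was obtained by dividing RNA reads by DNA reads, normalizing to a spiked-in non-cleaving sequence or to the top sequences, then scaling and log-transforming. The top set was 25 sequences, scaling was ×100 with log10, and ≥100 DNA reads were required.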

cyclic di-GMP [3] = variants of: B1; test: FACS-Seq fitted mean relative fluorescence mCherry/BFP with ligand (log10 relative fluorescence); HEK293T; ligand: cyclic di-GMP (c-di-GMP-II aptamer); ligand concentration (+) FACS-Seq: 1 mM; higher = higher reporter protein expression; conditions: ligand present: yes
Method in brief: as §1

cyclic di-GMP [4] = variants of: B1; test: normalized RNA/DNA level with ligand (relative to sTRSVctl = 100) (log10 (% of sTRSVctl)); HEK293T; ligand: cyclic di-GMP (c-di-GMP-II aptamer); ligand concentration (+) RNA-Seq: 1 mM; higher = less ribozyme self-cleavage, higher mRNA level; conditions: reporter: mCherry (pCS4076), ligand present: yes
Method in brief: as §2

Variant	FACS-Seq fitted mean (log10) (cyclic di-GMP [1])	normalized RNA/DNA level without ligand (log10) (cyclic di-GMP [2])	FACS-Seq fitted mean (log10) (cyclic di-GMP [3])	normalized RNA/DNA level with ligand (log10) (cyclic di-GMP [4])
GACAGA	-0.179 ± 0.21	1.52 ± 0.065	0.0814 ± 0.049	1.7 ± 0.068
ACACGG	-0.501 ± 0.0065	1.53 ± 0.084	-0.192 ± 0.029	1.69 ± 0.1
ACAAGU	-0.519 ± 0.012	1.42 ± 0.039	-0.19187 ± 0.00017	1.63 ± 0.13
ACAAGA	-0.604 ± 0.026	1.26 ± 0.14	-0.428 ± 0.022	1.46 ± 0.023
UUGGAA	-0.145 ± 0.025	1.61 ± 0.12	0.122 ± 0.11	1.78 ± 0.081
GCAGAG	-0.424 ± 0.029	1.4 ± 0.08	-0.199 ± 0.03	1.58 ± 0.043
UCCUCG	0.369 ± 0.066	1.797 ± 0.0034	0.448 ± 0.0052	1.91 ± 0.074
ACUCAG	-0.836 ± 0.044	1.61 ± 0.031	-0.677 ± 0.16	1.77 ± 0.1
CGCCUC	0.0848 ± 0.15	1.713 ± 0.011	0.399 ± 0.0065	1.85 ± 0.067
CACACU	-0.437 ± 0.0083	1.52 ± 0.12	-0.0902 ± 0.05	1.7 ± 0.067
UCAAUG	-0.476 ± 0.064	1.51 ± 0.12	-0.188 ± 0.01	1.78 ± 0.027
UCUUGA	-0.685 ± 0.031	1.702 ± 0.0063	-0.542 ± 0.027	1.84 ± 0.14
CGUUUA	-0.544 ± 0.037	1.32 ± 0.077	-0.288 ± 0.098	1.46 ± 0.064
CGUUUU	-0.597 ± 0.085	1.46 ± 0.052	-0.329 ± 0.11	1.61 ± 0.098
GCUCUU	-0.277 ± 0.12	1.66 ± 0.07	-0.215 ± 0.015	1.82 ± 0.16
UAUACU	0.0993 ± 0.048	1.722 ± 0.013	0.304 ± 0.012	1.85 ± 0.066
UAACGU	-0.388 ± 0.07	1.51 ± 0.095	-0.125 ± 0.05	1.71 ± 0.12
CAGCCA	-0.196 ± 0.089	1.42 ± 0.05	0.0333 ± 0.08	1.67 ± 0.14
